Assays:
[1] = target: sEGFR domain III (residues 310-512) (human) (UniProt P00533); test: size exclusion chromatography (Superdex 200), 4 µM, domain III with Fab 425 and Fab C225 together
[2] = target: sEGFR domain III S460P/G461N (human) (UniProt P00533); test: size exclusion chromatography (Superdex 200), 4 µM; the individual proteins elute at 15.6 mL
[3] = target: sEGFR domain III (residues 310-512) (human) (UniProt P00533); test: as above

elution volume of the tripartite complex [1]: 13.1 mL | elution volume of the mixture [2]: 15.2 mL | elution volume of the complex [3]: 13.9 mL
Substance: Fab 425

Reference: patent US20160152711A1
